Assay results as given in patent publication US20170306030A1.

Target: EGF receptor (UniProt P00533)
Assay: cell-based or functional assay

Substance | inhibition of proliferation and survival of Daudi-EGFR cells (WST-1), potency against the corresponding IFNα2a mutant alone | specificity of IFNα signaling, Daudi-EGFR against parental Daudi cells
IFNα-2a (R144A) - (Gly4Ser)7 - EGF chimeric activator (from UniProt P01563 24-188; P01133 23-1207) | 100 fold | 
IFNα-2a (R149A) - (Gly4Ser)7 - EGF chimeric activator (from UniProt P01563 24-188; P01133 23-1207) |  | > 20 fold
